Reference: US20160244497A1 (Amgen, published 2016)
Where a chain is given by its changes, count along the chain named. Names and notes keep the numbering of the source. Values joined by “and” are separate entries in the source; they are usually repeats but may differ in a detail not shown here. Identical values can stand only once.

B1: wild-type FGF21 (mature, un-PEGylated) (ligand)
chain: MHPIPDSSPLLQFGGQVRQRYLYTDDAQQTEAHLEIREDGTVGGAADQSPESLLQLKALKPGVIQILGVKTSRFLCQRPDGALYGSLHFDPEACSFRELLLEDGYNVYQSEAHGLPLHLPGNKSPHRDPAPRGPARFLPLPGLPPAPPEPPGILAPQPPDVGSSDPLSMVGPSQGRSPSYAS
B2: N-terminally PEGylated wild-type FGF21 (20 kDa PEG) (ligand)
chain: B1 chain
modifications: one 20 kDa PEG on the N-terminus (alpha-amino group)
B3: PEGylated FGF21 mutant K69C (ligand)
chain: B1 chain with K70C
modifications: 20 kDa methoxy-PEG-maleimide on Cys 69
B4: FGF21(K56R/K69R/K122R), 2 x 20k PEG (ligand)
chain: B1 chain with K57R, K70R, K123R
modifications: two 20k PEG (amine-specific): N-terminus and the one remaining lysine (Lys 59)
B5: FGF21(all K to all R, R77K), 2 x 20k PEG (ligand)
chain: B1 chain with K57R, K60R, K70R, R78K, K123R
modifications: two 20k PEG (amine-specific): N-terminus and Lys 77
B6: FGF21(K56/59/69R), 2 x 20k PEG (ligand)
chain: B1 chain with K57R, K60R, K70R
modifications: two 20k PEG (amine-specific): N-terminus and the one remaining lysine (Lys 122)
B7: FGF21(all K to all R, R36K), 2 x 20k PEG (ligand)
chain: B1 chain with R37K, K57R, K60R, K70R, K123R
modifications: two 20k PEG (amine-specific): N-terminus and Lys 36
B8: FGF21(K56R/K59R/K122R), 2 x 20k PEG (ligand)
chain: B1 chain with K57R, K60R, K123R
modifications: two 20k PEG (amine-specific): N-terminus and the one remaining lysine (Lys 69)
B9: FGF21(K59R/K69R/K122R), 2 x 20k PEG (ligand)
chain: B1 chain with K60R, K70R, K123R
modifications: two 20k PEG (amine-specific): N-terminus and the one remaining lysine (Lys 56)
B10: Native FGF21 (random), 2 x 20k PEG (ligand)
chain: B1 chain
modifications: two 20k PEG at random sites (sites not given)
B11: FGF21(all K to all R, R72K), 2 x 20k PEG (ligand)
chain: B1 chain with K57R, K60R, K70R, R73K, K123R
modifications: two 20k PEG (amine-specific): N-terminus and Lys 72
B12: FGF21(all K to all R, R175K), 2 x 20k PEG (ligand)
chain: B1 chain with K57R, K60R, K70R, K123R, R176K
modifications: two 20k PEG (amine-specific): N-terminus and Lys 175
B13: FGF21(K all R, R126K), 2 x 20k PEG (ligand)
chain: B1 chain with K57R, K60R, K70R, K123R, R127K
modifications: two 20k PEG (amine-specific): N-terminus and Lys 126
B14: FGF21 mutant H125C, P171G, PEGylated at the N-terminus and Cys 125 (2 x 20k) (ligand)
chain: B1 chain with H126C, P172G
modifications: 20 kDa PEG on the N-terminus; 20 kDa PEG on Cys 125
B15: FGF21 mutant R77C, P171G, PEGylated at the N-terminus and Cys 77 (2 x 20k) (ligand)
chain: B1 chain with R78C, P172G
modifications: 20 kDa PEG on the N-terminus; 20 kDa PEG on Cys 77
B16: FGF21 mutant H125C, P171G, PEGylated at the N-terminus (5k) and Cys 125 (20k) (ligand)
chain: B1 chain with H126C, P172G
modifications: 5 kDa PEG on the N-terminus; 20 kDa PEG on Cys 125
B17: FGF21 mutant H125C, P171G, PEGylated at the N-terminus (10k) and Cys 125 (20k) (ligand)
chain: B1 chain with H126C, P172G
modifications: 10 kDa PEG on the N-terminus; 20 kDa PEG on Cys 125
B18: dually PEGylated FGF21 mutant E37C, E91C, P171G (ligand)
chain: B1 chain with E38C, E92C, P172G
modifications: 20 kDa methoxy-PEG-maleimide on Cys 37 and on Cys 91
B19: dually PEGylated FGF21 mutant E37C, R175C, P171G (ligand)
chain: B1 chain with E38C, P172G, R176C
modifications: 20 kDa methoxy-PEG-maleimide on Cys 37 and on Cys 175
B20: dually PEGylated FGF21 mutant E37C, R77C, P171G (ligand)
chain: B1 chain with E38C, R78C, P172G
modifications: 20 kDa methoxy-PEG-maleimide on Cys 37 and on Cys 77
B21: dually PEGylated FGF21 mutant E37C, H125C, P171G (ligand)
chain: B1 chain with E38C, H126C, P172G
modifications: 20 kDa methoxy-PEG-maleimide on Cys 37 and on Cys 125
B22: dually PEGylated FGF21 mutant E91C, G120C, P171G (ligand)
chain: B1 chain with E92C, G121C, P172G
modifications: 20 kDa methoxy-PEG-maleimide on Cys 91 and on Cys 120
B23: dually PEGylated FGF21 mutant E91C, R175C, P171G (ligand)
chain: B1 chain with E92C, P172G, R176C
modifications: 20 kDa methoxy-PEG-maleimide on Cys 91 and on Cys 175
B24: dually PEGylated FGF21 mutant E91C, H125C, P171G (ligand)
chain: B1 chain with E92C, H126C, P172G
modifications: 20 kDa methoxy-PEG-maleimide on Cys 91 and on Cys 125
B25: dually PEGylated FGF21 mutant R77C, G120C, P171G (ligand)
chain: B1 chain with R78C, G121C, P172G
modifications: 20 kDa methoxy-PEG-maleimide on Cys 77 and on Cys 120
B26: dually PEGylated FGF21 mutant E37C, G120C, P171G (ligand)
chain: B1 chain with E38C, G121C, P172G
modifications: 20 kDa methoxy-PEG-maleimide on Cys 37 and on Cys 120
B27: Tethered Molecule of two FGF21 P171C polypeptides (20 kDa PEG linker) (ligand)
chain: B1 chain with P172C
modifications: Cys 171 of the two chains joined by one 20 kDa PEG bis-maleimide
B28: Tethered Molecule of two FGF21 R175C, P171G polypeptides (20 kDa PEG linker) (ligand)
chain: B1 chain with P172G, R176C
modifications: Cys 175 of the two chains joined by one 20 kDa PEG bis-maleimide
B29: Tethered Molecule of two FGF21 E91C, P171G polypeptides (20 kDa PEG linker) (ligand)
chain: B1 chain with E92C, P172G
modifications: Cys 91 of the two chains joined by one 20 kDa PEG bis-maleimide
B30: Tethered Molecule of two FGF21 G170C polypeptides (20 kDa PEG linker) (ligand)
chain: B1 chain with G171C
modifications: Cys 170 of the two chains joined by one 20 kDa PEG bis-maleimide
B31: Tethered Molecule of two FGF21 H125C, P171G polypeptides (20 kDa PEG linker) (ligand)
chain: B1 chain with H126C, P172G
modifications: Cys 125 of the two chains joined by one 20 kDa PEG bis-maleimide
B32: Tethered Molecule of two FGF21 E37C, P171G polypeptides (20 kDa PEG linker) (ligand)
chain: B1 chain with E38C, P172G
modifications: Cys 37 of the two chains joined by one 20 kDa PEG bis-maleimide
B33: Tethered Molecule of two FGF21 R77C, P171G polypeptides (20 kDa PEG linker) (ligand)
chain: B1 chain with R78C, P172G
modifications: Cys 77 of the two chains joined by one 20 kDa PEG bis-maleimide
B34: Tethered Molecule of two FGF21 G120C, P171G polypeptides (20 kDa PEG linker) (ligand)
chain: B1 chain with G121C, P172G
modifications: Cys 120 of the two chains joined by one 20 kDa PEG bis-maleimide

Each binder was assayed against beta-klotho (assay: cell-based or functional assay).

EC50, ELK-luciferase assay [nM]	Binder
0.63	B1

Molecular target: beta-klotho
Experiment: cell-based or functional assay
Remark: another data set of the same source

EC50, ELK-luciferase assay	Binder
36.7 nM and 43.3 nM and 21.5 nM and 40 nM	B2
5.3 nM	B3

Molecular target: beta-klotho
Experiment: cell-based or functional assay
Remark: another data set of the same source

In Vitro Activity EC50, ELK-luciferase assay [nM]	Binder
3	B1
215	B4
175	B5
43.3	B2
500	B6
73	B7
531	B8
499	B9
200	B10
> 1000	B11
> 1000	B12
38	B13

Molecular target: beta-klotho
Experiment: cell-based or functional assay
Remark: another data set of the same source

EC50, ELK-luciferase assay [nM]	Binder
3	B1
37	B2

Molecular target: beta-klotho
Experiment: cell-based or functional assay
Remark: another data set of the same source

EC50, ELK-luciferase assay [nM]	Binder
152	B14
64	B15
30	B16
65	B17

Molecular target: beta-klotho
Experiment: cell-based or functional assay
Remark: another data set of the same source

EC50, ELK-luciferase assay [nM]	Binder
30	B18
162	B19
27	B20
37	B21
34	B22
155	B23
37	B24
35	B25
35	B26

Molecular target: beta-klotho
Experiment: cell-based or functional assay
Remark: another data set of the same source

EC50, ELK-luciferase assay [nM]	Binder
0.21	B27
0.36	B28
0.2	B29
0.47	B30
0.21	B31
0.36	B32
0.25	B33
0.51	B34
